Data on 6 molecules can be found in paper PMC4520770 (Journal of molecular biology, 2015).

5/6‑FAM = 5/6-fluorescein amidite

B1: KL6-7_D3fA (peptide)
peptide: {5/6‑FAM}-RPQIWIHQGLQRLGAGLNAYYAR-NH2
B2: KL6-7 (peptide)
peptide: {5/6‑FAM}-RPQIWIHQGLQRLGDGLNAYYAR-NH2
B3: BL6-22_Y4eK (peptide)
peptide: {5/6‑FAM}-RPIIWIGQEISRVGDRENAYKAR-NH2
B4: KL6-7_Y4eK (peptide)
peptide: {5/6‑FAM}-RPQIWIHQGLQRLGDGLNAYKAR-NH2
B5: BL6-22 (peptide)
peptide: {5/6‑FAM}-RPIIWIGQEISRVGDRENAYYAR-NH2
B6: KScomp (peptide)
peptide: {5/6‑FAM}-RPNIWLTQRLQRTGDGLNAYYAR-NH2

For the test, the target named is KSBcl-2 (Kaposi's sarcoma-associated herpesvirus Bcl-2 homolog), c-myc-tagged (Kaposi's sarcoma-associated herpesvirus …, UniProt P90504 1-175). In words: fluorescence polarisation.
Consider B1, for which the Kd stood at 180 nM.
Next, B2: 1.6 nM.
B3 had a Kd of 750 nM.
B4 gave a Kd of 2.9 nM.
B5 registered a dissociation constant (Kd) of 1100 nM.
Next, B6: 13 nM.
